{"source": "paper PMC10006087", "about": "“The TINCR ubiquitin-like microprotein is a tumor suppressor in squamous cell carcinoma” (Nature Communications, 2023)", "molecular_target": "the molecule itself", "assay": "crystal structure; micro-batch under oil at 4 °C with seeding; 0.1 M magnesium sulfate heptahydrate, 0.1 M sodium acetate pH 5, 20% (w/v) PEG 1000; space group P4(3)2(1)2; 2.12 Å; two protomers in the asymmetric unit", "data": [{"protein": "human TINCR protein (natural protein, UniProt A0A2R8Y7D0 1-87, looked up, TINCR ubiquitin-like microprotein, human; The N-terminal 15-residue cap is visible in protomer A only; also called TINCR ubiquitin-like microprotein; TINCR recombinant protein) MEGLRRGLSRWKRYHIKVHLADEALLLPLTVRPRDTLSDLRAQLVGQGVSSWKRAFYYNARRLDDHQTVRDARLQDGSVLLLVSDPR", "values": [{"measurement": "binding result", "value": "binds"}]}]}
